# Laboratory results taken from doi:10.1101/2021.10.25.465661 (bioRxiv, 2021).
# B1: Qin eTud3 (Qin 959-1195) (domain or fragment, Drosophila melanogaster, UniProt Q9VE55 959-1195, looked up)
# chain: VRPVELSPYRMPDNTERNKRTTVNILYVRKPDEFYVTLPHFQKAINNLQKSVQKAAAAMYQNMLPRTDWQVGDMCYARVQANCDSQALWYRGVVTGVIPPGITCPIVRYQVHLRDLGELIDDVHSSSLANIDEADMRISSSAKRCHLHGIRPIGDEWSKDAIDFFMDQLKAYNEIHVTGRGRTENSLSVILWGSLSILTGPFSPATIKYVNINKALLMAGMAEKDHNSDSEDDQQSM
# Molecular target: the molecule itself
# Assay: SEC-MALS
protein,measurement,value
B1,stoichiometry N,2
